PMC8041770
One block for each binder: values may come before it.

How the values were obtained:
[1] = target: recombinant human LIF, histidine-tagged (hLIF-His) (human) (UniProt P15018)
[2] = target: recombinant human LIF, histidine-tagged (hLIF-His) (human) (UniProt P15018); assay: Kinetic Exclusion Assay (KinExA); both partners soluble; hLIF-His constant (100 pM for eLIFR-Fc, 250 pM for hLIFR-Fc), LIFR-Fc serially diluted, 18 h, BPBS with 0.02% sodium azide; free LIF-His captured on LIFR-Fc-coated PMMA beads; apparent Kd, n-curve analysis
[3] = target: yeast-displayed human LIF (hLIF, Ser23 to Phe203) (human) (UniProt P15018); assay: flow cytometry on cells; LIF displayed on yeast (EBY100), soluble Fc fusion titrated in PBS with 1 mg/ml BSA, Fc detected with fluorescent secondary antibody; apparent Kd by non-linear regression
[4] = target: yeast surface-displayed human LIF (Ser23 to Phe203) (human) (UniProt P15018); assay: flow cytometry on cells; hLIF displayed on yeast, soluble Fc fusion titrated in PBS with 1 mg/ml BSA; bound Fc detected by fluorescent anti-Fc antibody; apparent Kd by non-linear regression

IC50 of inhibition of LIF (20 pM) signalling through LIFR/gp130 in HeLa STAT3 luciferase reporter cells [1]: 1.8 nM
Kd [2]: 1.1 nM
B1: hLIFR-Fc (wild-type human LIFR CBM I–Ig-like–CBM II fused to hIgG1 Fc) (Fc fusion)
chain: QKKGAPHDLKCVTNNLQVWNCSWKAPSGTGRGTDYEVCIENRSRSCYQLEKTSIKIPALSHGDYEITINSLHDFGSSTSKFTLNEQNVSLIPDTPEILNLSADFSTSTLYLKWNDRGSVFPHRSNVIWEIKVLRKESMELVKLVTHNTTLNGKDTLHHWSWASDMPLECAIHFVEIRCYIDNLHFSGLEEWSDWSPVKNISWIPDSQTKVFPQDKVILVGSDITFCCVSQEKVLSALIGHTNCPLIHLDGENVAIKIRNISVSASSGTNVVFTTEDNIFGTVIFAGYPPDTPQQLNCETHDLKEIICSWNPGRVTALVGPRATSYTLVESFSGKYVRLKRAEAPTNESYQLLFQMLPNQEIYNFTLNAHNPLGRSQSTILVNITEKVYPHTPTSFKVKDINSTAVKLSWHLPGNFAKINFLCEIEIKKSNSVQEQRNVTIKGVENSSYLVALDKLNPYTLYTFRIRCSTETFWKWSKWSNKKQHLTTEAS

Kd [3]: 0.02 nM
B2: C-terminal eLIFR-Fc fusion containing a (Glycine)4Serine linker (Fc fusion)
chain: GGGGSDLKCVTNNLQVWNCSWKAPSGTGRGTDYEVCIENRSRSCYQLEKTSIKIPALSHGDYEITINSLHDFGSSTSKFTLNEQNVSLIPDTPEILNLSADFSTSTLYLKWNDRGSVFPHRSNVIWEIKVLRKESMELVKLVTHNTTLNGKDTLHHWSWASDMPLECAIHFVEIRCYIDNLHFSGLEEWSDWSPVKNISWIPDSQTKVFPQDKVVPVGSDITFCCVSQEKVLSALIGRTNCPLIHLDGENVAIKVRNVSASASSGTNVVFITEDDIFGTVIFAGYPPDTPQQLNCETHDLKEIICSWNPGRVTALVGPRATSYTLVESFSGKYVRLKRAEAPTNESYQLLFQMLPNQEIYNFTLNAHNPLGRSQSTILVNITEKVYPHTPTSFKVKDINSTAVKLSWHLPGNFAKINFLCEIEIKKSNSVQEQRNVTIKGVENSSYLVALDKLNPYTLYTFRIRCSTETFWKWSKWSNKKQHLTTEAS

Kd [4]: 0.35 nM
B3: full-length eLIFR-Fc (Fc fusion)
chain: QKKGAPHDLKCVTNNLQVWNCSWKAPSGTGRGTDYEVCIENRSRSCYQLEKTSIKIPALSHGDYEITINSLHDFGSSTSKFTLNEQNVSLIPDTPEILNLSADFSTSTLYLKWNDRGSVFPHRSNVIWEIKVLRKESMELVKLVTHNTTLNGKDTLHHWSWASDMPLECAIHFVEIRCYIDNLHFSGLEEWSDWSPVKNISWIPDSQTKVFPQDKVVPVGSDITFCCVSQEKVLSALIGRTNCPLIHLDGENVAIKVRNVSASASSGTNVVFITEDDIFGTVIFAGYPPDTPQQLNCETHDLKEIICSWNPGRVTALVGPRATSYTLVESFSGKYVRLKRAEAPTNESYQLLFQMLPNQEIYNFTLNAHNPLGRSQSTILVNITEKVYPHTPTSFKVKDINSTAVKLSWHLPGNFAKINFLCEIEIKKSNSVQEQRNVTIKGVENSSYLVALDKLNPYTLYTFRIRCSTETFWKWSKWSNKKQHLTTEASPSKGPDTWREWSSDGKNLIIYWKPLPINEANGKILSYNVSCSSDEETQSLSEIPDPQHKAEIRLDKNDYIISVVAKNSVGSSPPSKIASMEIPNDDLKIEQVVGMGKGILLTWHYDPNMTCDYVIKWCNSSRSEPCLMDWRKVPSNSTETVIESDEFRPGIRYNFFLYGCRNQGYQLLRSMIGYIEELAPIVAPNFTVEDTSADSILVKWEDIPVEELRGFLRGYLFYFGKGERDTSKMRVLESGRSDIKVKNITDISQKTLRIADLQGKTSYHLVLRAYTDGGVGPEKSMYVVTKENSVGLIIAILIPVAVAVIVGVVTSILCYRKREWIKETFYPDIPNPE
